1 molecule from patent publication US20250002921A1, “SPHERICAL NUCLEIC ACIDS FOR cGAS-STING AND STAT3 PATHWAY MODULATION FOR THE IMMUNOTHERAPEUTIC TREATMENT OF CANCER” (NORTHWESTER UNIVERSITY, priority 2021, published 2025) can be followed below.

For this data set, the system named is IRF. Put plainly: IRF reporter assay in isogenic cGAS-, STING- and IRF-deficient macrophages. Format: cell-based. Conditions: IRF-deficient macrophages, FIG. 2D. The text has this: (A) ICP-MS to quantify cellular level of gold in cells treated with ISD45-SNAs. (B-D) Luciferase reporter assay to quantify IRF induction in RAW-Lucia™ macrophages (B), THP cells (C), and in WT, cGAS-, STING- and IRF-deficient RAW-Lucia™ macrophages. TFX, transfection agent. Median+/−standard deviation is shown. *p<0.05. (E) Multiplex ELISA-based and (F) antibody array-based cytokine profiling in RAW-Lucia™ macrophages.
To exploit the SNA architecture for cGAS activation, we synthesized ISD45-SNAs by conjugating 13 nm gold nanoparticles with 45 base pair (bp) dsISD oligonucleotides (ISD^45-SNAs; FIG. 1A), as 45 bp ISD oligonucleotides represent the most used and widely characterized cGAS activator^7. The terms “dsISD^45” and “ISD^45” are interchangeable as used herein. Citrate-stabilized gold nanoparticles were prepared using the Frens method^4,8,9. […] In addition, by generating melting curves, using an OliGreen fluorescence assay, and determining the zeta potential, oligonucleotide incorporation was quantified^4,8,9. […] Upon cGAS enzyme deactivation, the mixture was added to cGAS-deficient RAW-Lucia™ macrophages, carrying stable integration of an IRF-inducible Lucia luciferase reporter to quantify IRF induction luminometrically. […]

B1: ISD-45: free 45 bp interferon-stimulatory dsDNA oligonucleotide, the most used and widely characterized cGAS activator (nucleic acid)
sense: TACAGATCTACTAGTGATCTATGACTGATCTGTACATGATCTACA
antisense: ACATCTAGTACATGTCTAGTCAGTATCTAGTGATCATCAGACA
modifications: DNA, backbone and methylation of C not given here
Consider B1, for which the “IRF induction in the absence of STING, cGAS or IRF” value is recorded as “blunted”.
